Target: T1, recombinant human PD-1 His-tag protein (R&D Systems) (human, UniProt Q15116 25-167)
T1 construct: Bought reagent; Used for the ELISA (coated) and for SPR (analyte); also called PD-1 protein; human PD-1 protein; not shown: His-tag
Assay: binding kinetics (method not described at the table; presumably SPR as in Example 8)

T1 sequence (Q15116 25-167 limits assumed): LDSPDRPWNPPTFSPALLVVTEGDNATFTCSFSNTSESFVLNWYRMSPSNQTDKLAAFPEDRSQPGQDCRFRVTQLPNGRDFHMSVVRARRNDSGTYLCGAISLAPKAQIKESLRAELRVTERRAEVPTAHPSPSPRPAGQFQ

Row | Binder | Kd [pM] | koff [s⁻¹] | kon [M⁻¹ s⁻¹]
1 | Modified Seq11 (modified zCUSB0136.8 antibody) (antibody, V domains shown) VH: QVQLQESGPGLVKPSETLSLTCTVSGFSLTTYDIIWIRQSPGKGLEWLGVIWTGGDTTYNSAFMSRLTISKDTSKNQISLKMSSLTAADTAVYYCARDWAYWGQGTLVTVSS VL: DIVLTQSPDSLAVSLGERATISCRASESVDNYGNSFIQWYQQKPGQPPKLLIYFASYLQSGVPDRFSGSGSGTDFTLTISSVQAEDVATYYCHQNNEDPFTFGGGTKLEIK | 20.6 | 7.57e-05 | 3.67e+06
2 | Modified Seq2 (modified zCUSB0136.8 antibody) (antibody, V domains shown) VH: QVQLQESGPGLVKPSETLSLTCTVSGFSLTVYDIIWIRQSPGKGLEWLGVIWTGGDTTYNSAFMSRLTISKDTSKNQISLKMSSLTAADTAVYYCARDWIYWGQGTLVTVSS VL: DIVLTQSPDSLAVSLGERATISCRASESVDNYGNSFIQWYQQKPGQPPKLLIYFASYLQSGVPDRFSGSGSGTDFTLTISSVQAEDVATYYCHQNNEDPFTFGGGTKLEIK | 5.71 | 2.53e-05 | 4.44e+06
3 | Modified Seq6 (modified zCUSB0136.8 antibody) (antibody, V domains shown) VH: QVQLQESGPGLVKPSETLSLTCTVSGFSLTTYDIIWIRQSPGKGLEWLGVIWTGGDTTYNSAFMSRLTISKDTSKNQISLKMSSLTAADTAVYYCARDWIYWGQGTLVTVSS VL: DIVLTQSPDSLAVSLGERATISCRASESVDNYGNSFIQWYQQKPGQPPKLLIYFASYLQSGVPDRFSGSGSGTDFTLTISSVQAEDVATYYCHQNNEDPFTFGGGTKLEIK | 13.6 | 5.45e-05 | 4e+06
4 | Modified Seq7 (modified zCUSB0136.8 antibody) (antibody, V domains shown) VH: QVQLQESGPGLVKPSETLSLTCTVSGFSLTTYDIIWIRQSPGKGLEWLGVIWTGGDTTYNSAFMSRLTISKDTSKNQISLKMSSLTAADTAVYYCARDWMYWGQGTLVTVSS VL: DIVLTQSPDSLAVSLGERATISCRASESVDNYGNSFIQWYQQKPGQPPKLLIYFASYLQSGVPDRFSGSGSGTDFTLTISSVQAEDVATYYCHQNNEDPFTFGGGTKLEIK | 14.2 | 5.48e-05 | 3.84e+06
5 | Modified Seq8 (modified zCUSB0136.8 antibody) (antibody, V domains shown) VH: QVQLQESGPGLVKPSETLSLTCTVSGFSLTTYDIIWIRQSPGKGLEWLGVIWTGGDTWYNSAFMSRLTISKDTSKNQISLKMSSLTAADTAVYYCARDWIYWGQGTLVTVSS VL: DIVLTQSPDSLAVSLGERATISCRASESVDNYGNSFIQWYQQKPGQPPKLLIYFASYLQSGVPDRFSGSGSGTDFTLTISSVQAEDVATYYCHQNNEDPFTFGGGTKLEIK | 14.7 | 6.09e-05 | 4.13e+06
6 | Modified Seq9 (modified zCUSB0136.8 antibody) (antibody, V domains shown) VH: QVQLQESGPGLVKPSETLSLTCTVSGFSLTTYDIIWIRQSPGKGLEWLGVIWTGGDTNYNSAFMSRLTISKDTSKNQISLKMSSLTAADTAVYYCARDWAYWGQGTLVTVSS VL: DIVLTQSPDSLAVSLGERATISCRASESVDNYGNSFIQWYQQKPGQPPKLLIYFASYLQSGVPDRFSGSGSGTDFTLTISSVQAEDVATYYCHQNNEDPFTFGGGTKLEIK | 15.8 | 5.98e-05 | 3.78e+06
7 | Modified Seq14 (modified zCUSB0136.8 antibody) (antibody, V domains shown) VH: QVQLQESGPGLVKPSETLSLTCTVSGFSLTTYDIIWIRQSPGKGLEWLGVIWTGGDTTYNSAFMSRLTISKDTSKNQISLKMSSLTAADTAVYYCARDWIYWGQGTLVTVSS VL: DIVLTQSPDSLAVSLGERATISCRASESVDNWGNSFIQWYQQKPGQPPKLLIYFASNLQSGVPDRFSGSGSGTDFTLTISSVQAEDVATYYCHQNNEDPFTFGGGTKLEIK | 24.4 | 6.5e-05 | 2.67e+06
8 | Modified Seq18 (modified zCUSB0136.8 antibody) (antibody, V domains shown) VH: QVQLQESGPGLVKPSETLSLTCTVSGFSLTTYDIIWIRQSPGKGLEWLGVIWTGGDTTYNSAFMSRLTISKDTSKNQISLKMSSLTAADTAVYYCARDWAYWGQGTLVTVSS VL: DIVLTQSPDSLAVSLGERATISCRASESVDNWGNSFIQWYQQKPGQPPKLLIYFASQLQSGVPDRFSGSGSGTDFTLTISSVQAEDVATYYCHQNNEDPFTFGGGTKLEIK | 30.7 | 7.82e-05 | 2.54e+06
9 | Modified Seq20 (modified zCUSB0136.8 antibody) (antibody, V domains shown) VH: QVQLQESGPGLVKPSETLSLTCTVSGFSLTVYDIIWIRQSPGKGLEWLGVIWTGGDTTYNSAFMSRLTISKDTSKNQISLKMSSLTAADTAVYYCARDWIYWGQGTLVTVSS VL: DIVLTQSPDSLAVSLGERATISCRASESVDNYGNSFIQWYQQKPGQPPKLLIYFASHLQSGVPDRFSGSGSGTDFTLTISSVQAEDVATYYCHQNNEDPFTFGGGTKLEIK | 31.9 | 8.7e-05 | 2.73e+06
10 | Modified Seq21 (modified zCUSB0136.8 antibody) (antibody, V domains shown) VH: QVQLQESGPGLVKPSETLSLTCTVSGFSLTTYDIIWIRQSPGKGLEWLGVIWTGGDTTYNSAFMSRLTISKDTSKNQISLKMSSLTAADTAVYYCARDWAYWGQGTLVTVSS VL: DIVLTQSPDSLAVSLGERATISCRASESVDNWGNSFIQWYQQKPGQPPKLLIYFASNLQSGVPDRFSGSGSGTDFTLTISSVQAEDVATYYCHQNNEDPFTFGGGTKLEIK | 41.2 | 0.000104 | 2.52e+06

More lines, in order of falling Kd, values ahead:

Row | Kd [pM] | koff [s⁻¹] | kon [M⁻¹ s⁻¹] | Binder
11 | 57 | 0.000134 | 2.36e+06 | Modified Seq22 (modified zCUSB0136.8 antibody) (antibody, V domains shown) VH: QVQLQESGPGLVKPSETLSLTCTVSGFSLTTYDIIWIRQSPGKGLEWLGVIWTGGDTTYNSAFMSRLTISKDTSKNQISLKMSSLTAADTAVYYCARDWAYWGQGTLVTVSS VL: DIVLTQSPDSLAVSLGERATISCRASESVDNWGNSFIQWYQQKPGQPPKLLIYFASNLQSGVPDRFSGSGSGTDFTLTISSVQAEDVATYYCHQNNEDPFTFGGGTKLEIK
12 | 31.5 | 7.97e-05 | 2.53e+06 | Modified Seq19 (modified zCUSB0136.8 antibody) (antibody, V domains shown) VH: QVQLQESGPGLVKPSETLSLTCTVSGFSLTTYDIIWIRQSPGKGLEWLGVIWTGGDTTYNSAFMSRLTISKDTSKNQISLKMSSLTAADTAVYYCARDWAYWGQGTLVTVSS VL: DIVLTQSPDSLAVSLGERATISCRASESVDNWGNSFIQWYQQKPGQPPKLLIYFASNLQSGVPDRFSGSGSGTDFTLTISSVQAEDVATYYCHQNNEDPFTFGGGTKLEIK
13 | 28.9 | 7.39e-05 | 2.56e+06 | Modified Seq17 (modified zCUSB0136.8 antibody) (antibody, V domains shown) VH: QVQLQESGPGLVKPSETLSLTCTVSGFSLTVYDIIWIRQSPGKGLEWLGVIWTGGDTTYNSAFMSRLTISKDTSKNQISLKMSSLTAADTAVYYCARDWAYWGQGTLVTVSS VL: DIVLTQSPDSLAVSLGERATISCRASESVDNYGNSFIQWYQQKPGQPPKLLIYFASYLQSGVPDRFSGSGSGTDFTLTISSVQAEDVATYYCHQNNEDPFTFGGGTKLEIK
14 | 24.6 | 6.3e-05 | 2.56e+06 | Modified Seq15 (modified zCUSB0136.8 antibody) (antibody, V domains shown) VH: QVQLQESGPGLVKPSETLSLTCTVSGFSLTVYDIIWIRQSPGKGLEWLGVIWTGGDTTYNSAFMSRLTISKDTSKNQISLKMSSLTAADTAVYYCARDWAYWGQGTLVTVSS VL: DIVLTQSPDSLAVSLGERATISCRASESVDNWGNSFIQWYQQKPGQPPKLLIYFASNLQSGVPDRFSGSGSGTDFTLTISSVQAEDVATYYCHQNNEDPFTFGGGTKLEIK
15 | 22.5 | 6.81e-05 | 3.03e+06 | Modified Seq12 (modified zCUSB0136.8 antibody) (antibody, V domains shown) VH: QVQLQESGPGLVKPSETLSLTCTVSGFSLTVYDIIWIRQSPGKGLEWLGVIWTGGDTTYNSAFMSRLTISKDTSKNQISLKMSSLTAADTAVYYCARDWIYWGQGTLVTVSS VL: DIVLTQSPDSLAVSLGERATISCRASESVDNWGNSFIQWYQQKPGQPPKLLIYFASHLQSGVPDRFSGSGSGTDFTLTISSVQAEDVATYYCHQNNEDPFTFGGGTKLEIK
16 | 17.4 | 6.74e-05 | 3.87e+06 | Modified Seq10 (modified zCUSB0136.8 antibody) (antibody, V domains shown) VH: QVQLQESGPGLVKPSETLSLTCTVSGFSLTTYDIIWIRQSPGKGLEWLGVIWTGGDTWYNSAFMSRLTISKDTSKNQISLKMSSLTAADTAVYYCARDWMYWGQGTLVTVSS VL: DIVLTQSPDSLAVSLGERATISCRASESVDNWGNSFIQWYQQKPGQPPKLLIYFASHLQSGVPDRFSGSGSGTDFTLTISSVQAEDVATYYCHQNNEDPFTFGGGTKLEIK
17 | 10.8 | 4.36e-05 | 4.06e+06 | Modified Seq5 (modified zCUSB0136.8 antibody) (antibody, V domains shown) VH: QVQLQESGPGLVKPSETLSLTCTVSGFSLTVYDIIWIRQSPGKGLEWLGVIWTGGDTTYNSAFMSRLTISKDTSKNQISLKMSSLTAADTAVYYCARDWMYWGQGTLVTVSS VL: DIVLTQSPDSLAVSLGERATISCRASESVDNYGNSFIQWYQQKPGQPPKLLIYFASYLQSGVPDRFSGSGSGTDFTLTISSVQAEDVATYYCHQNNEDPFTFGGGTKLEIK
18 | 9.44 | 3.92e-05 | 4.15e+06 | Modified Seq4 (modified zCUSB0136.8 antibody) (antibody, V domains shown) VH: QVQLQESGPGLVKPSETLSLTCTVSGFSLTVYDIIWIRQSPGKGLEWLGVIWTGGDTTYNSAFMSRLTISKDTSKNQISLKMSSLTAADTAVYYCARDWAYWGQGTLVTVSS VL: DIVLTQSPDSLAVSLGERATISCRASESVDNYGNSFIQWYQQKPGQPPKLLIYFASYLQSGVPDRFSGSGSGTDFTLTISSVQAEDVATYYCHQNNEDPFTFGGGTKLEIK
19 | 9.31 | 5.28e-05 | 5.67e+06 | Modified Seq3 (modified zCUSB0136.8 antibody) (antibody, V domains shown) VH: QVQLQESGPGLVKPSETLSLTCTVSGFSLTTYDIIWIRQSPGKGLEWLGVIWTGGDTTYNSAFMSRLTISKDTSKNQISLKMSSLTAADTAVYYCARDWIYWGQGTLVTVSS VL: DIVLTQSPDSLAVSLGERATISCRASESVDNWGNSFIQWYQQKPGQPPKLLIYFASYLQSGVPDRFSGSGSGTDFTLTISSVQAEDVATYYCHQNNEDPFTFGGGTKLEIK
20 | 5.39 | 2.81e-05 | 5.21e+06 | Modified Seq1 (modified zCUSB0136.8 antibody) (antibody, V domains shown) VH: QVQLQESGPGLVKPSETLSLTCTVSGFSLTTYDIIWIRQSPGKGLEWLGVIWTGGDTWYNSAFMSRLTISKDTSKNQISLKMSSLTAADTAVYYCARDWAYWGQGTLVTVSS VL: DIVLTQSPDSLAVSLGERATISCRASESVDNWGNSFIQWYQQKPGQPPKLLIYFASYLQSGVPDRFSGSGSGTDFTLTISSVQAEDVATYYCHQNNEDPFTFGGGTKLEIK

From patent publication US20260098092A1 (CHULALONGKORN UNIVERSITY, published 2026)
